Laboratory results reported in patent US20090203134A1, “REMEDY FOR NERVE CELL REGENERATION” (Kyoto University, priority 2005, published 2009).

Key:
Muller cells [1] = assay: Retinal organ culture, BrdU immunostaining of divided cells; assay type: cell-based, rat; details: 4 days
Experimental: (§1) The retina excluding the pigment epithelium was obtained from a 6-week-old adult DA rat (obtained from Shimizu Laboratory Supplies Co., Ltd. (Kyoto)) and a retinal organ culture was then carried out on a Millicell chamber filter. The retinal organ culture was conducted according to a method described in Methods 2002; 28: 387-395 and Brain Res 2002; 954: 286-293. The culture medium used was 50% Minimum Essential Medium +HEPES (Invitrogen Corporation)/25% Hank's solution (Invitrogen Corporation)/25% inactivated horse serum/200 μM L-glutamine/5.75 mg/ml glucose.
Wnt3a (100 ng/ml; R&D Systems) and BrdU (5ng/ml; SIGMA) were added to the culture medium everyday and a frozen specimen was then prepared after 4 days, followed by investigating the presence or absence of BrdU-positive divided cells by an immunological staining with a BrdU antibody.
Further, an inhibitor of glycogen synthase kinase 3β(GSK-3β), AR-A014418(J, Biol. Chem., Vol, 278, No. 46, p45937-45945, 2003), was added to a culture medium for the retina organ culture and the effect thereof was examined. […] In contrast, the number of BrdU-positive cells in control without the addition of AR-AO14418 was small.

Muller cells [2] = assay: Retinal organ culture, Rhodopsin expression of divided cells (differentiation into retinal nerve cells); assay type: cell-based, rat; details: 4 day culture with Wnt3a, then 1 week without Wnt3a
Experimental: as §1
Further, after 4 day culture with the addition of Wnt3a, the culture medium was changed, and the culture was then cultured for 1 week without Wnt3a.

Row | Molecule | number of BrdU-positive cells (Muller cells [1]; retina organ culture, 5 μM AR-A014418 together with BrdU, versus control without addition, FIG. 4) | BrdU-positive divided cells (immunological staining with a BrdU antibody) (Muller cells [1]; adult DA rat retinal organ culture, Wnt3a 100 ng/ml added everyday, compared with control without Wnt3a, FIG. 1) | ratio of the divided cells (number of divided cells in INL) (Muller cells [1]; adult DA rat retinal organ culture, Wnt3a 100 ng/ml, FIG. 2) | identity of divided cells (glutamine synthetase and BrdU immunological staining) (Muller cells [1]; adult DA rat retinal organ culture, Wnt3a 100 ng/ml, FIG. 3) | expression of Rhodopsin (marker of the visual cells) in divided cells (Muller cells [2])
1 | COc1ccc(CNC(=O)Nc2ncc([N+](=O)[O-])s2)cc1 [AR-A014418, reference compound] | the number of BrdU-positive cells was increased | – | – | – | –
2 | Wnt3a: Wnt3a protein (R&D Systems), a secretory glycoprotein of the Wnt family (protein, UniProt P56704 19-352, looked up) Protein Wnt-3a: SYPIWWSLAVGPQYSSLGSQPILCASIPGLVPKQLRFCRNYVEIMPSVAEGIKIGIQECQHQFRGRRWNCTTVHDSLAIFGPVLDKATRESAFVHAIASAGVAFAVTRSCAEGTAAICGCSSRHQGSPGKGWKWGGCSEDIEFGGMVSREFADARENRPDARSAMNRHNNEAGRQAIASHMHLKCKCHGLSGSCEVKTCWWSQPDFRAIGDFLKDKYDSASEMVVEKHRESRGWVETLRPRYTYFKVPTERDLVYYEASPNFCEPNPETGSFGTRDRTCNVSSHGIDGCDLLCCGRGHNARAERRREKCRCVFHWCCYVSCQECTRVYDVHTCK | – | many BrdU-positive divided cells in the retinal inner nuclear layer (INL) | dramatic increase in the number of the divided cells in INL | most of these divided cells were identified as glutamine synthetase positive Muller cells | a part of the divided cells express Rhodopsin
